According to patent US20170157165, “APTAMER FOR FGF2 AND USE THEREOF” (RIBOMIC INC., published 2017):

How the values were obtained:
FGF2 [1] = molecular target: T1, FGF2 (Homo sapiens, UniProt P09038 P09038:135-288); assay: cell_activity; HUVEC proliferation, FGF2 0.58 nM; details: tags: Peprotech
Experimental: Human umbilical vein endothelial cells (HUVEC) were seeded in a 96 well flat bottom plate at 5×10³ cells per well, and cultured overnight using a medium EGM-2 Bullet Kit for endothelial cells (CC-3162 manufactured by Lonza) containing 2% fetal bovine serum and growth factors. Thereafter, the medium was discarded, the cells were washed twice with PBS buffer, and a mixture of the aptamer shown by aptamer ID 3(21) (5, 2.5, 1, 0.5 nM) and FGF2 (final concentration 0.5 nM), dissolved in a medium exclusively for endothelial cells containing 2% fetal bovine serum, was added. After 72 hr, viable cell number was examined using Cell Counting Kit-8. For the measurement of absorbance, a microplate reader (450 nm) was used. One sample was measured at n=3. As a positive control, anti-FGF2 antibody Anti-FGF, basic (Ab-3) Mouse mAb (3H3) (manufactured by Calbiochem) were used. With the OD value per well obtained by the addition of FGF2 alone and culture of the cells for 3 days as inhibitory activity 0%, and that of the cell obtained by FGF2 free culture for 3 days as inhibitory activity 100%, the inhibitory activity of the aptamer was calculated from the OD value per well obtained by culturing with the addition of a mixture of FGF2 and the aptamer. As a result, it was shown that the aptamer shown by aptamer ID 3(21) has a high inhibitory activity against FGF2.
By a method similar to the above except that the 96 well flat bottom plate was changed to a collagen-coated one, the activity of various aptamers was evaluated. The concentration of FGF2 added was 0.58 nM. As a negative control RNA, Macugen (registered trade mark) sequence without addition of PEG, and with C6 modification of the 5′-terminal and idT modification of the 3′-terminal was used.

FGF2 [2] = molecular target: T1, FGF2; assay: inhibition; SPR inhibition of FGF2-FGFR1alpha(IIIc); each 0.1 uM; details: tags: Peprotech
Experimental: BIAcore2000 manufactured by BIAcore was used for the measurement. As directed in BIAcore Company's protocol, Protein A (21181, manufactured by PIERCE) was immobilized on a CM5 sensor chip. About 1,000 RU of human FGFR1α (IIIc), R2α (IIIc), R3 (IIIc), R4 (manufactured by R&D Systems) fused with the Fc portion of IgG (manufactured by R&D systems) was each immobilized thereon. As analyte, a mixture of FGF2 (0.1 μM), heparin (0.1 μM) (manufactured by Pfizer) and aptamer (0.15 μM) was flown. Before an inhibitory test, a mixture of FGF2 and heparin was confirmed to bind to 4 kinds of receptors. […] A sensorgram showing that the aptamer shown by aptamer ID 1 inhibits binding of FGF2 and FGFR1α(IIIc), 2α(IIIc), 3(IIIc), 4 is shown in FIG. 2.
In addition, the inhibitory rate against each of the 4 kinds of receptors was determined. The inhibitory rate was determined with the maximum binding amount of the FGF2 and heparin mixture as 0, and the binding amount with an injection buffer alone as 100. The binding amount here means the RU value of the peak top of sensorgram. The inhibitory rate was calculated. […] The inhibitory rate of other aptamers was not more than 50%.
To enhance FGF2-binding activity, stability, drug deliverability and the like, the nucleic acids shown by aptamer IDs 3(1)-3(40), aptamer IDs 4 and 4(1)-4(4), aptamer ID 5 and aptamer ID 6 were chemically synthesized based on the aptamer shown in SEQ ID NO: 3. Here, the aptamer shown by aptamer ID 4 is the aptamer shown by aptamer ID 3(19) wherein one G(M) at the 5′-terminal and one C(M) at the 3′-terminal have been deleted. The aptamer shown by aptamer ID 5 is the aptamer shown by aptamer ID 3(19) wherein one G(M) has been added at the 5′-terminal and one C(M) has been added at the 3′-terminal. The aptamer shown by aptamer ID 6 is the aptamer shown by aptamer ID 3(19) wherein A(M) alone has been added at the 5′-terminal. These nucleic acids were produced by chemical synthesis.

T1 sequence (P09038 135-288, one chain of several): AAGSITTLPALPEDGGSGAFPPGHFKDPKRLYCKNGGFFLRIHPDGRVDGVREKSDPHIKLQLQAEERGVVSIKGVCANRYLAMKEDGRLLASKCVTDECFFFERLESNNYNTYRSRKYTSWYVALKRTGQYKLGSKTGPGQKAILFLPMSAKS

| Binder | IC50 (FGF2 [1]) [nM] | activity (FGF2 [2]) [%] |
| --- | --- | --- |
| GGAUACUAGGGCAUUAAUGUUACCAGUGUAGUCC (ssRNA, 2'-F at U7,U15,U20,U27,U29; 2'-OH at G11,G26,G28; all others 2'-OMe; 3' idT) [aptamer ID 4] | 5 | 95 |
| GGGAUACUAGGGCAUUAAUGUUACCAGUGUAGUCCC (ssRNA, all C and U 2'-F; 2'-OMe at G1,G2,G3,A4,A9,G10,G11,A14,A17,A18,G20,A23,A26; other purines 2'-OH; 3' idT) [aptamer ID 3(8)] | 27 | 84 |
| GGGAUACUAGGGCAUUAAUGUUACCAGUGUAGUCCC (ssRNA, 2'-F at U8,U16,U21,U28,G29,U30; 2'-OH at G12,G27; all others 2'-OMe) [aptamer ID 3(27)] | 3.7 | 99 |
| GGGAUACUAGGGCAUUAAUGUUACCAGUGUAGUCCC (ssRNA, 2'-OMe at G1,G2,G3,A4,A9,G10,G11,A14,A17,A18,G20,U22,A23,A26; other C and U 2'-F; other purines 2'-OH) [aptamer ID 3(14)] | 12 | 87 |
| GGGAUACUAGGGCAUUAAUGUUACCAGUGUAGUCCC (ssRNA, all C and U 2'-F; 2'-OMe at A26; other purines 2'-OH) [aptamer ID 3(7)] |  | 89 |
| GGGAUACUAGGGCAUUAAUGUUACCAGUGUAGUCCC (ssRNA, 2'-OMe at G1,G2,G3,A4,A9,G10,G11,A14,A17,A18,G20,A23,C24,C25,A26; other C and U 2'-F; other purines 2'-OH) [aptamer ID 3(15)] | 14 | 86 |
| GGGAUACUAGGGCAUUAAUGUUACCAGUGUAGUCCC (ssRNA, 2'-F at U8,U16,U21,U28,U30; 2'-OH at G12,G27,G29; all others 2'-OMe; 5' PEG 80K (GL4-800TS)-C6; 3' idT) [aptamer ID 3(36)] |  | 98 |
| GGGAUACUAGGGCAUUAAUGUUACCAGUGUAGUCCC (ssRNA, 2'-OMe at G1,G2,G3,A4,A9,G10,G11,A14,A17,A18,G20,A23,A26,U33,C34,C35,C36; other C and U 2'-F; other purines 2'-OH; 3' idT) [aptamer ID 3(12)] | 21 | 89 |
| GGGAUACUAGGGCAUUAAUGUUACCAGUGUAGUCCC (ssRNA, 2'-F at U8,U16,U21,U28,U30; G27 DNA (2'-H); 2'-OH at G12,G29; all others 2'-OMe) [aptamer ID 3(24)] | 7.3 | 90 |
| GGGAUACUAGGGCAUUAAUGUUACCAGUGUAGUCCC (ssRNA, 2'-OMe at G1,G2,G3,A4,C7,A9,G10,G11,A14,A17,A18,G20,A23,A26; other C and U 2'-F; other purines 2'-OH) [aptamer ID 3(16)] | 7.9 | 87 |
| GGGAUACUAGGGCAUUAAUGUUACCAGUGUAGUCCC (ssRNA, 2'-F at U8,U16,U21,U28,U30; 2'-OH at G12,G27,G29; all others 2'-OMe; 5' PEG 10K (ME-100TS)-C6; 3' idT) [aptamer ID 3(38)] |  | 97 |
| GGGAUACUAGGGCAUUAAUGUUACCAGUGUAGUCCC (ssRNA, 2'-F at U8,G12,U16,U21,G27,U28,G29,U30; all others 2'-OMe; 3' idT) [aptamer ID 3(34)] |  | 91 |
| GGGAUACUAGGGCAUUAAUGUUACCAGUGUAGUCCC (ssRNA, all C and U 2'-F; 2'-OMe at A9; other purines 2'-OH) [aptamer ID 3(5)] |  | 87 |
| GGGAUACUAGGGCAUUAAUGUUACCAGUGUAGUCCC (ssRNA, 2'-F at U8,U16,U21,U28,U30; 2'-OH at G12,G27,G29; all others 2'-OMe; 5' PEG 40K (Y-NHS-40K)-ssH; 3' idT) [aptamer ID 3(37)] |  | 97 |
| GGGAUACUAGGGCAUUAAUGUUACCAGUGUAGUCCC (ssRNA, 2'-F at U8,U16,U21,U28,U30; 2'-OH at G12,G27,G29; all others 2'-OMe; 5' idT) [aptamer ID 3(20)] |  | 96 |
| GGGAUACUAGGGCAUUAAUGUUACCAGUGUAGUCCC (ssRNA, all C and U 2'-F; 2'-OMe at A23; other purines 2'-OH) [aptamer ID 3(6)] |  | 78 |
| GGGAUACUAGGGCAUUAAUGUUACCAGUGUAGUCCC (ssRNA, 2'-OMe at G1,G2,G3,A4,U5,A9,G10,G11,A14,A17,A18,G20,A23,A26; other C and U 2'-F; other purines 2'-OH) [aptamer ID 3(17)] |  | 88 |
| GGGAUACUAGGGCAUUAAUGUUACCAGUGUAGUCCC (ssRNA, all C and U 2'-F; 2'-OMe at A6; other purines 2'-OH) [aptamer ID 3(9)] |  | 89 |
| GGGAUACUAGGGCAUUAAUGUUACCAGUGUAGUCCC (ssRNA, all C and U 2'-F; 2'-OMe at G1,G2,G3,A4; other purines 2'-OH) [aptamer ID 3(2)] |  | 89 |

| Binder | IC50 (FGF2 [1]) [nM] | activity (FGF2 [2]) [%] |
| --- | --- | --- |
| GGGAUACUAGGGCAUUAAUGUUACCAGUGUAGUCCC (ssRNA, 2'-OMe at G1,G2,G3,A4,A9,G10,G11,A14,U15,U16,A17,A18,U19,G20,A23,A26; other C and U 2'-F; other purines 2'-OH) [aptamer ID 3(13)] | 15 | 88 |
| GGGAUACUAGGGCAUUAAUGUUACCAGUGUAGUCCC (ssRNA, all C and U 2'-F; 2'-OMe at G10; other purines 2'-OH) [aptamer ID 3(4)] |  | 89 |
| GGGAUACUAGGGCAUUAAUGUUACCAGUGUAGUCCC (ssRNA, 2'-F at U8,U16,U21,U28,U30; 2'-OH at G12,G27,G29; all others 2'-OMe; PS between A26 and G27) [aptamer ID 3(30)] | 3.3 | 99 |
| GGGAUACUAGGGCAUUAAUGUUACCAGUGUAGUCCC (ssRNA, 2'-F at U8,U16,U21,U28,U30; 2'-OH at G12,G27,G29; all others 2'-OMe; PS between G27 and U28) [aptamer ID 3(31)] | 10 | 91 |
| GGGAUACUAGGGCAUUAAUGUUACCAGUGUAGUCCC (ssRNA, 2'-F at U8,U16,U21,G27,U28,U30; 2'-OH at G12,G29; all others 2'-OMe) [aptamer ID 3(26)] | 3 | 99 |
| GGGAUACUAGGGCAUUAAUGUUACCAGUGUAGUCCC (ssRNA, all C and U 2'-F; 2'-OMe at A31; other purines 2'-OH) [aptamer ID 3(11)] |  | 88 |
| GGGAUACUAGGGCAUUAAUGUUACCAGUGUAGUCCC (ssRNA, 2'-F at U8,U16,U21,U28,U30; 2'-OH at G12,G27,G29; all others 2'-OMe) [aptamer ID 3(18)] | 2.6 | 89 |
| GGGAUACUAGGGCAUUAAUGUUACCAGUGUAGUCCC (ssRNA, 2'-F at U8,G12,U16,U21,U28,U30; 2'-OH at G27,G29; all others 2'-OMe) [aptamer ID 3(25)] | 5.1 | 90 |
| GGGAUACUAGGGCAUUAAUGUUACCAGUGUAGUCCC (ssRNA, 2'-F at U8,U16,U21,U28,U30; 2'-OH at G12,G27,G29; all others 2'-OMe; 5' PEG 10K 4-branched (PTE-100CS)-C6; 3' idT) [aptamer ID 3(39)] |  | 97 |
| GGGAUACUAGGGCAUUAAUGUUACCAGUGUAGUCCC (ssRNA, all C and U 2'-F; 2'-OMe at G11; other purines 2'-OH) [aptamer ID 3(3)] |  | 87 |
| GGGAUACUAGGGCAUUAAUGUUACCAGUGUAGUCCC (ssRNA, 2'-F at U8,U16,U21,U28,U30; 2'-OH at G12,G27,G29; all others 2'-OMe; PS between G29 and U30) [aptamer ID 3(33)] | 4 | 90 |
| GGGAUACUAGGGCAUUAAUGUUACCAGUGUAGUCCC (ssRNA, 2'-F at U8,U16,U21,U28,U30; G12 DNA (2'-H); 2'-OH at G27,G29; all others 2'-OMe) [aptamer ID 3(23)] | 5.3 | 91 |
| GGGAUACUAGGGCAUUAAUGUUACCAGUGUAGUCCC (ssRNA, 2'-F at U8,U16,U21,U28,U30; 2'-OH at G12,G27,G29; all others 2'-OMe; PS between G11 and G12) [aptamer ID 3(28)] | 4 | 91 |
| GGGAUACUAGGGCAUUAAUGUUACCAGUGUAGUCCC (ssRNA, 2'-F at U8,U16,U21,U28,U30; 2'-OH at G12,G27,G29; all others 2'-OMe; PS between G12 and C13) [aptamer ID 3(29)] | 3.1 | 91 |
| GGGAUACUAGGGCAUUAAUGUUACCAGUGUAGUCCC (ssRNA, 2'-F at U8,G12,U16,U21,G27,U28,U30; 2'-OH at G29; all others 2'-OMe; 3' idT) [aptamer ID 3(35)] |  | 84 |
| GGGAUACUAGGGCAUUAAUGUUACCAGUGUAGUCCC (ssRNA, 2'-F at U8,U16,U21,U28,U30; 2'-OH at G12,G27,G29; all others 2'-OMe; 5' PEG 40K (GL2-400TS)-ssH; 3' idT) [aptamer ID 3(40)] |  | 97 |
| GGGAUACUAGGGCAUUAAUGUUACCAGUGUAGUCCC (ssRNA, 2'-F at U8,U16,U21,U28,U30; 2'-OH at G12,G27,G29; all others 2'-OMe; PS between U28 and G29) [aptamer ID 3(32)] | 4 | 91 |
| GGGAUACUAGGGCAUUAAUGUUACCAGUGUAGUCCC (ssRNA, all C and U 2'-F; 2'-OMe at G32; other purines 2'-OH) [aptamer ID 3(10)] |  | 89 |
